Columns and labels:
KaiC-AA (S431A, T432A) = KaiC-AA (S431A, T432A) (UniProt Q79PF4); assay: cryo-EM structure
cryo-EM structure = target: the molecule itself; assay: cryo-EM structure

“KaiC-AA (S431A, T432A) (from UniProt Q79PF4 14-484) (enzyme)” showed a stoichiometry N (KaiC-AA (S431A, T432A)) of 6.

B1: KaiC-EE (S431E, T432E) (enzyme)
chain: EHQAIAKMRTMIEGFDDISHGGLPIGRSTLVSGTSGTGKTLFSIQFLYNGIIEFDEPGVFVTFEETPQDIIKNARSFGWDLAKLVDEGKLFILDASPDPEGQEVVGGFDLSALIERINYAIQKYRARRVSIDSVTSVFQQYDASSVVRRELFRLVARLKQIGATTVMTTERIEEYGPIARYGVEEFVSDNVVILRNVLEGERRRRTLEILKLRGTSHMKGEYPFTITDHGINIFPLGAMRLTQRSSNVRVSSGVVRLDEMCGGGFFKDSIILATGATGTGKTLLVSRFVENACANKERAILFAYEESRAQLLRNAYSWGMDFEEMERQNLLKIVCAYPESAGLEDHLQIIKSEINDFKPARIAIDSLSALARGVSNNAFRQFVIGVTGYAKQEEITGLFTNTSDQFMGAHSITDSHIEEITDTIILLQYVEIRGEMSRAINVFKMRGSWHDKAIREFMISDKGPDIKDSFRNFERIISGSPTRI
In the case of B1, the “stoichiometry N” value (cryo-EM structure) is reported as 6.
